The values that follow come from paper PMC3590144, “Determination of the Structure of the Catabolic N-Succinylornithine Transaminase (AstC) from Escherichia coli” (PLoS ONE, 2013).

Common to all, as to assay: purified protein
Details in all cases: PLP-reconstituted holo-enzyme, 200 µM alpha-ketoglutarate, 500 µM NAD+, 5 U GDH, 10 mM Tris-HCl pH 8.0

Substrate in data set [1]: CC(=O)N[C@@H](CCCN)C(=O)O
Format: biochemical, Escherichia coli.

Substrate in data set [2]: NCCC[C@H](NC(=O)CCC(=O)O)C(=O)O
The format is biochemical, Escherichia coli.

Substrate in data set [3]: NCCC[C@H](N)C(=O)O

B1: AstC (Escherichia coli K-12) (protein)
chain: MSQPITRENFDEWMIPVYAPAPFIPVRGEGSRLWDQQGKEYIDFAGGIAVNALGHAHPELREALNEQASKFWHTGNGYTNEPVLRLAKKLIDATFADRVFFCNSGAEANEAALKLARKFAHDRYGSHKSGIVAFKNAFHGRTLFTVSAGGQPAYSQDFAPLPADIRHAAYNDINSASALIDDSTCAVIVEPIQGEGGVVPASNAFLQGLRELCNRHNALLIFDEVQTGVGRTGELYAYMHYGVTPDLLTTAKALGGGFPVGALLATEECARVMTVGTHGTTYGGNPLASAVAGKVLELINTPEMLNGVKQRHDWFVERLNTINHRYGLFSEVRGLGLLIGCVLNADYAGQAKQISQEAAKAGVMVLIAGGNVVRFAPALNVSEEEVTTGLDRFAAACEHFVSRGSS
notes: full-length, native untagged, no plasmid; purified from E. coli BL21(DE3) by Ni-NTA and size exclusion as apo-protein, reconstituted with PLP; about 406 residues; dimer
With B1, in the data set “purified protein [1]”, the Km (as a rule, the concentration of substrate that gives half-maximal velocity) was found to be 338 µM; the kcat (in general, the number of substrate molecules converted per active site and unit of time at saturation) stood at 4.7 s⁻¹; the kcat/Km (as a rule, the turnover number divided by the Michaelis constant) came to 13900 M⁻¹ s⁻¹. Moreover, in “purified protein [2]”, the Km is on record as 284 µM, the turnover number (kcat) was determined as 3 s⁻¹ and the kcat/Km was determined as 10600 M⁻¹ s⁻¹. Besides, in the data set “purified protein [3]”, the Km is 4,391 µM, the kcat was 3.5 s⁻¹ and the kcat/Km was determined as 797 M⁻¹ s⁻¹.
